Laboratory results reported in IntAct's records for PubMed 20676133.

B1: RING finger protein 11 (Homo sapiens), Q9Y3C5 (parent)
chain: MGNCLKSPTSDDISLLHESQSDRASFGEGTEPDQEPPPPYQEQVPVPVYHPTPSQTRLATQLTEEEQIRIAQRIGLIQHLPKGVYDPGRDGSEKKIRECVICMMDFVYGDPIRFLPCMHIYHLDCIDDWLMRSFTCPSCMEPVDAALLSSYETN

Variants of: B1
Settings: with itch_human ITCH

Variant	effect of a mutation on the interaction
MGNCLKSPTSDDISLLHESQSDRASFGEGTEPDQEPPPPAQEQVPVPVYHPTPSQTRLATQLTEEEQIRIAQRIGLIQHLPKGVYDPGRDGSEKKIRECVICMMDFVYGDPIRFLPCMHIYHLDCIDDWLMRSFTCPSCMEPVDAALLSSYETN [Y40A]	disrupting interaction

Variants of: B1
Settings: with nedd4_human NEDD4, P46934
Chain of nedd4_human NEDD4, P46934 (P46934 whole entry): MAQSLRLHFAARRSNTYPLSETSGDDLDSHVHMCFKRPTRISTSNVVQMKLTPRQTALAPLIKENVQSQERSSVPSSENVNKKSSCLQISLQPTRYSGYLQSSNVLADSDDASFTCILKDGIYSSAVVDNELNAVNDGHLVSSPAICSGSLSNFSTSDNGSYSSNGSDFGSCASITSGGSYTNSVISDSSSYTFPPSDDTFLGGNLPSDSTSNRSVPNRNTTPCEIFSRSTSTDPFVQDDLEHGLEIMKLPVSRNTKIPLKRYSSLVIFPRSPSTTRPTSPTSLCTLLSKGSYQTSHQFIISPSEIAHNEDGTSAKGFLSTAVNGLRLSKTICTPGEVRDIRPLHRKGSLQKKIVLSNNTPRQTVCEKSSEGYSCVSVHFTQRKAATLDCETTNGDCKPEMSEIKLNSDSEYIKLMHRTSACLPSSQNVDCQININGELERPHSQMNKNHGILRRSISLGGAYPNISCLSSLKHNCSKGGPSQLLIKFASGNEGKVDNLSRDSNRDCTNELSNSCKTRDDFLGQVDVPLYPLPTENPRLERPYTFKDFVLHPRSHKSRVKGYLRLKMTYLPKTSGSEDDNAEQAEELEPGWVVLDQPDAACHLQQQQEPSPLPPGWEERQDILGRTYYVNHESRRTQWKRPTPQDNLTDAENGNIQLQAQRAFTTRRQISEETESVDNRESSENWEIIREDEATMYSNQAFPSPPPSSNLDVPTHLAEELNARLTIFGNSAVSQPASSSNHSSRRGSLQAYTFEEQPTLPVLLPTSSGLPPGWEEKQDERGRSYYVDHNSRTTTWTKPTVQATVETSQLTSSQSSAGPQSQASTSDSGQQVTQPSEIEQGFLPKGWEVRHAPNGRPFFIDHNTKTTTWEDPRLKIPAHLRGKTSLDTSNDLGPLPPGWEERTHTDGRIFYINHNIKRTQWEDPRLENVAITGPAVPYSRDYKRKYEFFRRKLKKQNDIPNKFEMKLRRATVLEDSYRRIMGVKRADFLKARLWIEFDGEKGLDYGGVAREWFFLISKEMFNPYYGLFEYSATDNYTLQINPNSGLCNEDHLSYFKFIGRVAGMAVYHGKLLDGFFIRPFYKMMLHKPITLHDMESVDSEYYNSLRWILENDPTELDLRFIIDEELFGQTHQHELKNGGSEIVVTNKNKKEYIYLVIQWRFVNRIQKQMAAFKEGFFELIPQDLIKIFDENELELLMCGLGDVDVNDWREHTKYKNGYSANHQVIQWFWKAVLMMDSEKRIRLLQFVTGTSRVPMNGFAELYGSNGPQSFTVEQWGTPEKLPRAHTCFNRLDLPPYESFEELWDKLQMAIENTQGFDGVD

Variant	effect of a mutation on the interaction
MGNCLKSPTSDDISLLHESQSDRASFGEGTEPDQEPPPPAQEQVPVPVYHPTPSQTRLATQLTEEEQIRIAQRIGLIQHLPKGVYDPGRDGSEKKIRECVICMMDFVYGDPIRFLPCMHIYHLDCIDDWLMRSFTCPSCMEPVDAALLSSYETN [Y40A]	disrupting interaction

Variants of: B1
Settings: with smuf2_human SMURF2, Q9HAU4
Chain of smuf2_human SMURF2, Q9HAU4 (Q9HAU4 whole entry): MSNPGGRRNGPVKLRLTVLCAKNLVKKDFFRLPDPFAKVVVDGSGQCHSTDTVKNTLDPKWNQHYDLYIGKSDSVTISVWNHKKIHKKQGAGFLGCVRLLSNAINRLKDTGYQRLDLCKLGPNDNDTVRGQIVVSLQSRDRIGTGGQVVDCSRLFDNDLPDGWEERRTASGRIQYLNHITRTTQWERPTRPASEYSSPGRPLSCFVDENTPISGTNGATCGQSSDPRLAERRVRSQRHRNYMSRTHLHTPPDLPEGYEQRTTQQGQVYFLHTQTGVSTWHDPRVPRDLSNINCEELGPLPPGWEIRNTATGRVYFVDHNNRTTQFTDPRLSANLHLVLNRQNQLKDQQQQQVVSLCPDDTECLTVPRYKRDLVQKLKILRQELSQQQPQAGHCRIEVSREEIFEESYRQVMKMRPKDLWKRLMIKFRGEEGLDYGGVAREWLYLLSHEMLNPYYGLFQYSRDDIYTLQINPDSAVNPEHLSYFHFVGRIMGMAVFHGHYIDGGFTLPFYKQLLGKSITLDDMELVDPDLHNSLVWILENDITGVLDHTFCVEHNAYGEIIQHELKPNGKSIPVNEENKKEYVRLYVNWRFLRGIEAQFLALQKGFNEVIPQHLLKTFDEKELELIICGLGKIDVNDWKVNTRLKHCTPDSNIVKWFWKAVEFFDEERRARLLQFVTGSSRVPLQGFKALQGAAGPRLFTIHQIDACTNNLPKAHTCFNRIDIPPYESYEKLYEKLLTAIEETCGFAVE

Variant	effect of a mutation on the interaction
MGNCLKSPTSDDISLLHESQSDRASFGEGTEPDQEPPPPAQEQVPVPVYHPTPSQTRLATQLTEEEQIRIAQRIGLIQHLPKGVYDPGRDGSEKKIRECVICMMDFVYGDPIRFLPCMHIYHLDCIDDWLMRSFTCPSCMEPVDAALLSSYETN [Y40A]	disrupting interaction
